# Test results from paper PMC6070450, “The tetraamine chelator outperforms HYNIC in a new technetium-99m-labelled somatostatin receptor 2 antagonist” (EJNMMI Research, 2018).
# Read-outs that look alike come from different tables or passages of the source.
# What was measured:
# [1] = biological target: T1, sst1 (Homo sapiens, UniProt P30872); experiment: Receptor autoradiography binding affinity, sst1; conditions: membrane pellet sections of human sst1-expressing CHO cells; mean ± SEM, n ≥ 3
# T1 construct: expressed in transfected cells; host or cells: Chinese hamster ovary cells (gift of Drs. T. Reisine and G. Singh)
# Protocol: (§1) Cell membrane pellets were prepared from human sst1-expressing Chinese hamster ovary cells (kindly provided by Drs. T. Reisine and G. Singh, University of Pennsylvania, Philadelphia, Pa.); sst2-, sst3-, and sst4-expressing CCL39 cells (kindly provided by Dr. D. Hoyer, Novartis Pharma, Basel, Switzerland); and sst5-expressing human embryonic kidney 293 (HEK293) cells (kindly provided by Prof. Stefan Schulz, University of Jena, Germany) and stored at − 80 °C. Quantitative receptor autoradiography was performed on 20-μm-thick membrane pellet sections and quantitated as previously described.
# [2] = biological target: T2, sst2 (Homo sapiens, UniProt P30874); experiment: Receptor autoradiography binding affinity, sst2; conditions: membrane pellet sections of sst2-expressing CCL39 cells; mean ± SEM, n ≥ 3
# T2 construct: expressed in transfected cells; host or cells: CCL39 cells (gift of Dr. D. Hoyer, Novartis)
# Protocol: as §1
# [3] = biological target: T3, sst3 (Homo sapiens, UniProt P32745); experiment: Receptor autoradiography binding affinity, sst3; conditions: membrane pellet sections of sst3-expressing CCL39 cells; mean ± SEM, n ≥ 3
# T3 construct: expressed in transfected cells; host or cells: CCL39 cells (gift of Dr. D. Hoyer, Novartis)
# Protocol: as §1
# [4] = biological target: T4, sst4 (Homo sapiens, UniProt P31391); experiment: Receptor autoradiography binding affinity, sst4; conditions: membrane pellet sections of sst4-expressing CCL39 cells; mean ± SEM, n ≥ 3
# T4 construct: expressed in transfected cells; host or cells: CCL39 cells (gift of Dr. D. Hoyer, Novartis)
# Protocol: as §1
# [5] = biological target: T5, sst5 (Homo sapiens, UniProt P35346); experiment: Receptor autoradiography binding affinity, sst5; conditions: membrane pellet sections of sst5-expressing HEK293 cells; mean ± SEM, n ≥ 3
# T5 construct: expressed in transfected cells; host or cells: HEK293 cells (gift of Prof. Stefan Schulz, University of Jena)
# Protocol: as §1
# [6] = format: physicochemical
# Protocol: The distribution coefficients (log D) were determined using the shake-flask method (see Additional file 1). […]
# equivalents of DIPEA were used. The cleavage and deprotection of the peptide-chelator conjugates was accomplished by incubating for 1.5h in TFA:thioanisole:triisopropylsilane:H2O 95:2:2:1. The resin was then filtered and washed with the above mixture, after which the filtrate was evaporated and triturated with diethyl ether to give the crude product. This was purified by semi-preparative HPLC to obtain the corresponding chelator-peptide conjugate with purity ≥97%.
# Radiolabeling of Chelator-Peptide Conjugates
# 177Lu-SS-03: 10 µg of SS-03 in 300 µL sodium acetate buffer (0.4 mol/L, pH 5.0) were […]
# phosphate buffer pH 11.5 (50 μL) and 0.1 M sodium citrate (5 μL) followed by SS-04 solution (30 μg, 25 μL) and freshly prepared SnCl2 solution in ethanol (30 μg, 25 μL). […]
# 99mTc-SS-05: 30 µg SS05 was added to 1 mL aqueous edda/tricine solution (5 mg edda, 15 mg tricine). […] All radiolabeled peptides were analyzed with analytical HPLC. […]
# Each radiopeptide was added to a presaturated 1/1mixture of PBS/n-octanol, at a concentration of 100 nmol/L. The mixtures were vigorously shaken for 10 min and then centrifuged. The activity concentrations of equal volume samples of both phases were measured in a γ-counter and the partition coefficient (LogD) was calculated. […]
# [7] = in vivo; set-up: species or system mice; conditions: female, athymic nude, mouse, iv, 10 pmol, total radioactivity
# Protocol: All animal experiments were conducted in compliance with Swiss animal protection laws and associated regulations. The protocol was approved by the Cantonal Veterinary Ethics Committee of the University of Basel (approval #789). Female athymic nude mice (4–6 weeks old) were injected subcutaneously (s.c.) in the right shoulder with 10^7 HEK293-rsst2 cells in 100 μL sterile PBS. The tumours were allowed to grow for 14–18 days (tumour weight 100–200 mg).
# The mice were injected into the tail vein with 100 μL/10 pmol/0.37 MBq of ^177Lu-SS-03 or ^99mTc-SS-04 and were euthanised at 1, 4, and 24 h post-injection (p.i.). Organs of interest and blood were collected, rinsed of excess blood, blotted dry, weighed, and counted in a γ-counter. To determine nonspecific uptake, three animals were pre-injected with 20 nmol of the relevant unlabelled peptide in 0.9% NaCl solution (0.1 mL); after 5 min, the radiopeptide was injected and the percentage of injected activity per gram (%IA/g) was calculated for each tissue. The total counts injected per animal were determined by extrapolation from counts of an aliquot taken from the injected solution as a standard.
# [8] = biological target: T1, sst1; conditions: mean ± SEM; cited from earlier work
# From the text: Table 2 Binding affinities (IC50, nM) of chelator-peptide conjugates | column: IC50 (nM)* / sst1
# [9] = biological target: T2, sst2; conditions: mean ± SEM; cited from earlier work
# From the text: Table 2 Binding affinities (IC50, nM) of chelator-peptide conjugates | column: IC50 (nM)* / sst2
# [10] = biological target: T3, sst3; conditions: mean ± SEM; cited from earlier work
# From the text: Table 2 Binding affinities (IC50, nM) of chelator-peptide conjugates | column: IC50 (nM)* / sst3
# [11] = biological target: T4, sst4; conditions: mean ± SEM; cited from earlier work
# From the text: Table 2 Binding affinities (IC50, nM) of chelator-peptide conjugates | column: IC50 (nM)* / sst4
# [12] = biological target: T5, sst5; conditions: mean ± SEM; cited from earlier work
# From the text: Table 2 Binding affinities (IC50, nM) of chelator-peptide conjugates | column: IC50 (nM)* / sst5
# T2 sequence (P30874 whole entry): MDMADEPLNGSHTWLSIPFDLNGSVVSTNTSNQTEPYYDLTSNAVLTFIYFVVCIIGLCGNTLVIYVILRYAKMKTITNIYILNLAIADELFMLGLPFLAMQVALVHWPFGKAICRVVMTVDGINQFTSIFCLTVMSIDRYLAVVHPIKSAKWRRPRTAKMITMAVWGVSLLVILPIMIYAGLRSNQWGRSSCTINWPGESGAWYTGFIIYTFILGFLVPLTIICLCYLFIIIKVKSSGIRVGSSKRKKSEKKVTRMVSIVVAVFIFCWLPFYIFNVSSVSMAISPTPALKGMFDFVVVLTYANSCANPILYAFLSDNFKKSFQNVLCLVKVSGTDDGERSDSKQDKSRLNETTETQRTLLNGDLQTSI
# T5 sequence (P35346 whole entry): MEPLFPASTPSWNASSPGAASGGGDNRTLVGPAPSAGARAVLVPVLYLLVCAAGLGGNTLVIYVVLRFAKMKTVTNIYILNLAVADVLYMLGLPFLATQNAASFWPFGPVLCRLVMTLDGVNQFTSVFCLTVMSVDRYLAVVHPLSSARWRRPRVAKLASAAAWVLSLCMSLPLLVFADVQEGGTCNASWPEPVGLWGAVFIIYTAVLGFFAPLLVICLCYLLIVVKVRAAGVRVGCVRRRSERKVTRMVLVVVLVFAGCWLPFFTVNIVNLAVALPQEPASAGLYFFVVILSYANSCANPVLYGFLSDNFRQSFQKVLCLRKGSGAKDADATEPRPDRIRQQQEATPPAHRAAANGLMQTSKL
# T1 sequence (P30872 whole entry): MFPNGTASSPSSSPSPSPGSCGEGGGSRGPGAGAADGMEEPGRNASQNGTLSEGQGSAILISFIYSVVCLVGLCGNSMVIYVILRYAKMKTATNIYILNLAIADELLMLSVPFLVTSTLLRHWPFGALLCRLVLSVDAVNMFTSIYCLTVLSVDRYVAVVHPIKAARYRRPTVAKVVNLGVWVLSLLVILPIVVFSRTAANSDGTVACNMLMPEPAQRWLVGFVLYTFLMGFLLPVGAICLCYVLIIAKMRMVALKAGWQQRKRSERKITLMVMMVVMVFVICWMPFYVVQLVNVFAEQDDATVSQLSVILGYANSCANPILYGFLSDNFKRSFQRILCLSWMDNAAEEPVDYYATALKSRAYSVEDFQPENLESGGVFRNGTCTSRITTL
# T3 sequence (P32745 whole entry): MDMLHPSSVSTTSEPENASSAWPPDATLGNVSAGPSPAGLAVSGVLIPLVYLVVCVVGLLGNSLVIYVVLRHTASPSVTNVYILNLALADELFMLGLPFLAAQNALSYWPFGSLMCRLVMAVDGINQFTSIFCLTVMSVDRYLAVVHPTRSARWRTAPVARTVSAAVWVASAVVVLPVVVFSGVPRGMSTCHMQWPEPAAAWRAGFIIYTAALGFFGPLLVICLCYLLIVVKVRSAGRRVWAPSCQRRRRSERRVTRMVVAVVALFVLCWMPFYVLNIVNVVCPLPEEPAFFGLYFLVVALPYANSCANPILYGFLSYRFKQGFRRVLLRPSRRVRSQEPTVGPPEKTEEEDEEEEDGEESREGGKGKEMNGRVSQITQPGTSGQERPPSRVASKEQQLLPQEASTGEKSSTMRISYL
# T4 sequence (P31391 whole entry): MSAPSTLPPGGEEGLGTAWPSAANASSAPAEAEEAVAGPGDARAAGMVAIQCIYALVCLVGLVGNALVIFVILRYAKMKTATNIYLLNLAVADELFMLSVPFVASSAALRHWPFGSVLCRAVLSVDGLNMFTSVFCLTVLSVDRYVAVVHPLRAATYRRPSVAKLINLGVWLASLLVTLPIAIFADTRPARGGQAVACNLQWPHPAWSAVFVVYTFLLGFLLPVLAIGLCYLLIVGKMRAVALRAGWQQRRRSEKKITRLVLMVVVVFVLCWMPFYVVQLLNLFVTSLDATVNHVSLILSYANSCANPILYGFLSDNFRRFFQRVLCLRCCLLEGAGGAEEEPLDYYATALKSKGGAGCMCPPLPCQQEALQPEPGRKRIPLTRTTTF
compound,measurement,setting,value
"C[C@@H](O)[C@@H]1NC(=O)[C@H](CCCCN)NC(=O)[C@@H](Cc2c[nH]c3ccccc23)NC(=O)[C@H](Cc2ccc(O)cc2)NC(=O)[C@H](NC(=O)[C@H](Cc2ccc(Cl)cc2)NC(=O)CN2CCN(CC(=O)O)CCN(CC(=O)O)CCN(CC(=O)O)CC2)CSSC[C@@H](C(=O)N[C@H](Cc2ccc(O)cc2)C(N)=O)NC1=O [SS-03, DOTA-(4-Cl)-Phe-Cyclo(D-Cys-Tyr-D-Trp-Lys-Thr-Cys)-D-Tyr-NH2]",IC50,[1],> 1000 nM
same,IC50,[2],1.7 ± 0.06 nM
same,IC50,[3],> 1000 nM
same,IC50,[4],404 ± 92 nM
same,IC50,[5],564 ± 174 nM
"C[C@@H](O)[C@@H]1NC(=O)[C@H](CCCCN)NC(=O)[C@@H](Cc2c[nH]c3ccccc23)NC(=O)[C@H](Cc2ccc(O)cc2)NC(=O)[C@H](NC(=O)[C@H](Cc2ccc(Cl)cc2)NC(=O)C(CNCCN)CNCCN)CSSC[C@@H](C(=O)N[C@H](Cc2ccc(O)cc2)C(N)=O)NC1=O [SS-04, N4-(4-Cl)-Phe-Cyclo(D-Cys-Tyr-D-Trp-Lys-Thr-Cys)-D-Tyr-NH2]",IC50,[1],> 1000 nM
same,IC50,[2],5.3 ± 0.17 nM
same,IC50,[3],720 ± 74 nM
same,IC50,[4],171 ± 35 nM
same,IC50,[5],228 ± 73 nM
"C[C@@H](O)[C@@H]1NC(=O)[C@H](CCCCN)NC(=O)[C@@H](Cc2c[nH]c3ccccc23)NC(=O)[C@H](Cc2ccc(O)cc2)NC(=O)[C@H](NC(=O)[C@H](Cc2ccc(Cl)cc2)NC(=O)c2ccc(NN)nc2)CSSC[C@@H](C(=O)N[C@H](Cc2ccc(O)cc2)C(N)=O)NC1=O [^99mTc-SS-05, metal not drawn]",log D,[6],− 2.03 ± 0.27
"C[C@@H](O)[C@@H]1NC(=O)[C@H](CCCCN)NC(=O)[C@@H](Cc2c[nH]c3ccccc23)NC(=O)[C@H](Cc2ccc(O)cc2)NC(=O)[C@H](NC(=O)[C@H](Cc2ccc(Cl)cc2)NC(=O)CN2CCN(CC(=O)O)CCN(CC(=O)O)CCN(CC(=O)O)CC2)CSSC[C@@H](C(=O)N[C@H](Cc2ccc(O)cc2)C(N)=O)NC1=O [^177Lu-SS-03, metal not drawn]",tissue uptake at 1 h,[7]; Adrenal uptake,3.7 ± 0.63 %ID/g
same,tissue uptake at 4 h,[7]; Adrenal uptake,2.9 ± 0.46 %ID/g
same,tissue uptake at 24 h,[7]; Adrenal uptake,1.16 ± 0.46 %ID/g
same,tissue uptake at 1 h,[7]; Blood uptake,0.57 ± 0.04 %ID/g
same,tissue uptake at 4 h,[7]; Blood uptake,0.21 ± 0.04 %ID/g
same,tissue uptake at 24 h,[7]; Blood uptake,< 0.1 %ID/g
same,tissue uptake at 1 h,[7]; Bone uptake,4.11 ± 0.53 %ID/g
same,tissue uptake at 4 h,[7]; Bone uptake,2.77 ± 1.06 %ID/g
same,tissue uptake at 24 h,[7]; Bone uptake,1.25 ± 0.16 %ID/g
same,tissue uptake at 1 h,[7]; Heart uptake,0.69 ± 0.12 %ID/g
same,tissue uptake at 4 h,[7]; Heart uptake,0.38 ± 0.07 %ID/g
same,tissue uptake at 24 h,[7]; Heart uptake,0.11 ± 0.04 %ID/g
same,tissue uptake at 1 h,[7]; Intestine uptake,3.13 ± 1.16 %ID/g
same,tissue uptake at 4 h,[7]; Intestine uptake,2.28 ± 0.31 %ID/g
same,tissue uptake at 24 h,[7]; Intestine uptake,0.27 ± 0.06 %ID/g
same,tissue uptake at 1 h,[7]; Kidney uptake,15.2 ± 1.86 %ID/g
same,tissue uptake at 4 h,[7]; Kidney uptake,17 ± 1.81 %ID/g
same,tissue uptake at 24 h,[7]; Kidney uptake,7.35 ± 1.66 %ID/g
same,tissue uptake at 1 h,[7]; Liver uptake,3 ± 0.66 %ID/g
same,tissue uptake at 4 h,[7]; Liver uptake,1.75 ± 0.22 %ID/g
same,tissue uptake at 24 h,[7]; Liver uptake,0.47 ± 0.07 %ID/g
same,tissue uptake at 1 h,[7]; Lung uptake,13.2 ± 4.49 %ID/g
same,tissue uptake at 4 h,[7]; Lung uptake,6.71 ± 1.37 %ID/g
same,tissue uptake at 24 h,[7]; Lung uptake,0.74 ± 0.22 %ID/g
same,tissue uptake at 1 h,[7]; Muscle uptake,0.22 ± 0.06 %ID/g
same,tissue uptake at 4 h,[7]; Muscle uptake,0.12 ± 0.02 %ID/g
same,tissue uptake at 24 h,[7]; Muscle uptake,0.07 ± 0.02 %ID/g
same,tissue uptake at 1 h,[7]; Pancreas uptake,72.6 ± 13.8 %ID/g
same,tissue uptake at 4 h,[7]; Pancreas uptake,54.5 ± 7.28 %ID/g
same,tissue uptake at 24 h,[7]; Pancreas uptake,3.03 ± 0.62 %ID/g
same,tissue uptake at 1 h,[7]; Spleen uptake,1.51 ± 0.19 %ID/g
same,tissue uptake at 4 h,[7]; Spleen uptake,1.42 ± 0.77 %ID/g
same,tissue uptake at 24 h,[7]; Spleen uptake,0.33 ± 0.06 %ID/g
same,tissue uptake at 1 h,[7]; Stomach uptake,48.7 ± 13.1 %ID/g
same,tissue uptake at 4 h,[7]; Stomach uptake,30.2 ± 4.25 %ID/g
same,tissue uptake at 24 h,[7]; Stomach uptake,6.02 ± 1.4 %ID/g
same,tissue uptake at 1 h,[7]; Tumour uptake,23.6 ± 1.28 %ID/g
same,tissue uptake at 4 h,[7]; Tumour uptake,31.7 ± 4 %ID/g
same,tissue uptake at 24 h,[7]; Tumour uptake,26.3 ± 4.42 %ID/g
same,tissue to tissue ratio at 1 h,[7]; Tumour/blood ratio,41.3
same,tissue to tissue ratio at 4 h,[7]; Tumour/blood ratio,150
same,tissue to tissue ratio at 24 h,[7]; Tumour/blood ratio,361
same,tissue to tissue ratio at 1 h,[7]; Tumour/bone ratio,5.7
same,tissue to tissue ratio at 4 h,[7]; Tumour/bone ratio,11.5
same,tissue to tissue ratio at 24 h,[7]; Tumour/bone ratio,21.1
same,tissue to tissue ratio at 1 h,[7]; Tumour/kidney ratio,1.56
same,tissue to tissue ratio at 4 h,[7]; Tumour/kidney ratio,1.86
same,tissue to tissue ratio at 24 h,[7]; Tumour/kidney ratio,3.58
same,tissue to tissue ratio at 1 h,[7]; Tumour/liver ratio,7.9
same,tissue to tissue ratio at 4 h,[7]; Tumour/liver ratio,18.1
same,tissue to tissue ratio at 24 h,[7]; Tumour/liver ratio,55.8
same,tissue to tissue ratio at 1 h,[7]; Tumour/muscles ratio,110
same,tissue to tissue ratio at 4 h,[7]; Tumour/muscles ratio,259
same,tissue to tissue ratio at 24 h,[7]; Tumour/muscles ratio,372
same,log D,[6],− 2.35 ± 0.22
DOTA-pNO2Phe-cyclo[D-Cys-Tyr-D-Trp-Lys-Thr-Cys]-D-Tyr-NH2 (disulfide) [DOTA-sst2-ANT],IC50,[8],> 1000 nM
same,IC50,[9],1.5 ± 0.4 nM
same,IC50,[10],> 1000 nM
same,IC50,[11],287 ± 27 nM
same,IC50,[12],> 1000 nM
